Like-named read-outs stand apart in the source and are kept apart here.
T1: human CD16B-His6 (NA2) (human, UniProt O75015 17-200)
T1 construct: Bought ECD fragment; also called CD16B NA2; human CD16B (NA2); not shown: six-histidine tag (His6)
T1 chain: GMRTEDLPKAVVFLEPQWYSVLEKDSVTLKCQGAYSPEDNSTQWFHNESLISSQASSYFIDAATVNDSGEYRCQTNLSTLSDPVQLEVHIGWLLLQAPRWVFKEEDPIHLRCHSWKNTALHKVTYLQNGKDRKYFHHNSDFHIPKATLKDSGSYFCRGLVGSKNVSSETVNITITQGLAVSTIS

T2: human CD16B-His6 (NA1) (human, UniProt O75015 17-200)
T2 construct: Bought ECD fragment; also called CD16B NA1; human CD16B (NA1); not shown: six-histidine tag (His6)
T2 chain: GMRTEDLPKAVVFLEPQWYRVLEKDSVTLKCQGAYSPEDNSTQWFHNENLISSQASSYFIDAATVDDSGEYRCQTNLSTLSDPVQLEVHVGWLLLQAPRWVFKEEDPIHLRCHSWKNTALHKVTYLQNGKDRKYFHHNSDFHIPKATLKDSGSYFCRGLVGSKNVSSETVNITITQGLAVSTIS

T3: human CD16B (NA1) on NK92mi cells (human, UniProt O75015 17-200)
T3 construct: also called NK92mi/CD16B (NA1); NK92mi/CD16B NA1
T3 chain: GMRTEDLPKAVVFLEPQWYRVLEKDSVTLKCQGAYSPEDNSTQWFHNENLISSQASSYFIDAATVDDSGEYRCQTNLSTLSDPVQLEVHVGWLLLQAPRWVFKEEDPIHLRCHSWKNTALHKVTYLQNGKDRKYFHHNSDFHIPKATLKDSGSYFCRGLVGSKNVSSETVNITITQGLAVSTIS

T4: human CD16B (NA2) on NK92mi cells (human, UniProt O75015 17-200)
T4 construct: also called NK92mi/CD16B (NA2); NK92mi/CD16B NA2
T4 chain: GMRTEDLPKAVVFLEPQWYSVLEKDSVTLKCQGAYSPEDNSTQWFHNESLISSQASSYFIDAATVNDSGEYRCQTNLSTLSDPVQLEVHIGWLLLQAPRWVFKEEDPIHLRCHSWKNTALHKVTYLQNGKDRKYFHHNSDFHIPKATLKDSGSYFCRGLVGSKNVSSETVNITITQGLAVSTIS


Experiments:
human CD16B-His6 (NA2) [1] = target: T1, human CD16B-His6 (NA2); assay: SPR; VHH-Fc captured on anti-human Fc surface; row head prints 'KD (nM)', taken as M like the rest of the table
human CD16B-His6 (NA1) [2] = target: T2, human CD16B-His6 (NA1); assay: as above
cyno CD16-His6 [3] = target: T5, cyno CD16-His6 (cyno, UniProt Q8SPW2 17-208); assay: SPR; VHH-Fc captured on anti-human Fc surface; column head prints 'KD (nM)', koff/kon shows M
T5 construct: Bought ECD fragment; not shown: six-histidine tag (His6)
T5 sequence (Q8SPW2 17-208): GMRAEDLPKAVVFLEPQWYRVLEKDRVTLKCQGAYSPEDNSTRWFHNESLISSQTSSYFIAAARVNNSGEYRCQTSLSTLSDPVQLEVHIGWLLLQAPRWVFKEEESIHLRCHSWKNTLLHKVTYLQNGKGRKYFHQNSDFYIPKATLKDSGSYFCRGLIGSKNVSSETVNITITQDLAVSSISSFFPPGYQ

[4] = target: T6, human CD16A (F158) on NK92mi cells (human, UniProt P08637 17-254); assay: flow cytometry, biotinylated VHH-Fc on NK92mi/CD16A 158F cells, with 10 mg/ml human IgG1 CB6 as competitor
T6 construct: NK92mi cells co-transduced with CD16A (F158) and FcRgamma cDNAs; also called NK92mi/CD16A F158

human CD16A-His6 (F158) [5] = target: T7, human CD16A-His6 (F158) (human, UniProt P08637 17-208); assay: SPR; VHH-Fc captured on anti-human Fc surface
T7 construct: Bought ECD fragment; also called human CD16A (F158); not shown: six-histidine tag (His6)

human CD16A-His6 (V158) [6] = target: T8, human CD16A-His6 (V158) (human, UniProt P08637 17-208); assay: SPR; VHH-Fc captured on anti-human Fc surface
T8 construct: Bought (Sino Biologics) ECD fragment; also called CD16A 158V; human CD16A (V158); not shown: six-histidine tag (His6)

cyno CD16-His6 [7] = target: T5, cyno CD16-His6; assay: SPR; VHH-Fc captured on anti-human Fc surface
[8] = target: T3, human CD16B (NA1) on NK92mi cells; assay: flow cytometry on live NK92mi/CD16B NA1 cells, 300 nM VHH-Fc
[9] = target: T6, human CD16A (F158) on NK92mi cells; assay: flow cytometry on NK92mi/CD16A 158F cells
human CD16A-His6 (F158) [10] = target: T7, human CD16A-His6 (F158); assay: SPR; VHH-Fc captured on anti-human Fc surface; row head prints 'KD (nM)', koff/kon shows M
human CD16A-His6 (V158) [11] = target: T8, human CD16A-His6 (V158); assay: as above
[12] = target: T6, human CD16A (F158) on NK92mi cells; assay: flow cytometry, biotinylated VHH-Fc on NK92mi/CD16A 158F cells, without human IgG1 (CB6)
[13] = target: T4, human CD16B (NA2) on NK92mi cells; assay: flow cytometry on live NK92mi/CD16B NA2 cells, 300 nM VHH-Fc
human CD16A-His6 (F158) [14] = target: T7, human CD16A-His6 (F158); assay: SPR; VHH-Fc captured on anti-human Fc surface; remark: listed apart in the source
human CD16A-His6 (V158) [15] = target: T8, human CD16A-His6 (V158); assay: SPR; VHH-Fc captured on anti-human Fc surface; remark: listed apart in the source
human CD16B-His6 (NA2) [16] = target: T1, human CD16B-His6 (NA2); assay: SPR; VHH-Fc captured on anti-human Fc surface; row head prints 'KD (nM)', taken as M like the rest of the table
human CD16B-His6 (NA1) [17] = target: T2, human CD16B-His6 (NA1); assay: as above
human CD16A-His6 (F158) [18] = target: T7, human CD16A-His6 (F158); assay: SPR; VHH-Fc captured on anti-human Fc surface; row head prints 'KD (nM)', text gives 0.08 nM, so M
human CD16A-His6 (V158) [19] = target: T8, human CD16A-His6 (V158); assay: as above
[20] = target: T6, human CD16A (F158) on NK92mi cells; assay: flow cytometry on live NK92mi/CD16A 158F cells

| Binder | Kd (human CD16B-His6 (NA2) [1]) [nM] | Kd (human CD16B-His6 (NA1) [2]) [nM] | Kd (cyno CD16-His6 [3]) [nM] | EC50 [4] [nM] | EMAX (MFI) [4] [MFI] | koff (human CD16A-His6 (F158) [5]) [s⁻¹] | kon (human CD16A-His6 (F158) [5]) [M⁻¹ s⁻¹] | koff (human CD16A-His6 (V158) [6]) [s⁻¹] | kon (human CD16A-His6 (V158) [6]) [M⁻¹ s⁻¹] | koff (cyno CD16-His6 [7]) [s⁻¹] | kon (cyno CD16-His6 [7]) [M⁻¹ s⁻¹] | Binding signal at 300 nM (MFI) [8] [MFI] | EC50 [9] [nM] | EMAX (MFI) [9] [MFI] | Kd (human CD16A-His6 (F158) [10]) [nM] | Kd (human CD16A-His6 (V158) [11]) [nM] | EC50 [12] [nM] | EMAX (MFI) [12] [MFI] | Binding signal at 300 nM (MFI) [13] [MFI] | other results |
| --- | --- | --- | --- | --- | --- | --- | --- | --- | --- | --- | --- | --- | --- | --- | --- | --- | --- | --- | --- | --- |
| BG525P (VHH-Fc) (VHH, Humanized BG523P variant, VHH-Fc) EVQLVESGGGLVQPGGSLRLSCAASGRTFGSYAVGWFRQAPGRGREFVAAIRRSDGTTDYVDSVKGRFTISRDNAKNTVYLQMNSLKPEDTAVYYCAASDSDYEPLGDYWGQGTLVTVSSEPKSSDKTHTCPPCPAPPAAGPSVFLFPPKPKDTLMISRTPEVTCVVVDVSHEDPEVKFNWYVDGVEVHNAKTKPREEQYNSTYRVVSVLTVLHQDWLNGKEYKCKVSNKALAAPIEKTISKAKGQPREPQVYTLPPSREEMTKNQVSLTCLVKGFYPSDIAVEWESNGQPENNYKTTPPVLDSDGSFFLYSKLTVDKSRWQQGNVFSCSVMHEALHNHYTQKSLSLSPGK | 5780 | 2310 | 0.418 | 6.83 | 21900 | 0.00012 | 210000 | 0.000103 | 255000 | 0.000112 | 267000 | 733 | 10.3 | 9710 | 0.575 | 0.404 | 1.65 | 23300 | 75 | – |
| BG524P (VHH-Fc) (VHH, Humanized BG523P variant, VHH fused to the N-terminus of the human IgG1 variant Fc) EVQLVESGGGLVQPGGSLRLSCAASGRTFGSYAVGWFRQAPGKGREWVAAIRRSDATTDYVDSVKGRFTISRDNAKNSVYLQMNSLRPEDTAVYYCAASDSDYEPLGDYWGQGTLVTVSSEPKSSDKTHTCPPCPAPPAAGPSVFLFPPKPKDTLMISRTPEVTCVVVDVSHEDPEVKFNWYVDGVEVHNAKTKPREEQYNSTYRVVSVLTVLHQDWLNGKEYKCKVSNKALAAPIEKTISKAKGQPREPQVYTLPPSREEMTKNQVSLTCLVKGFYPSDIAVEWESNGQPENNYKTTPPVLDSDGSFFLYSKLTVDKSRWQQGNVFSCSVMHEALHNHYTQKSLSLSPGK | – | – | – | – | – | – | – | – | – | – | – | – | – | – | – | – | – | – | – | koff (human CD16A-His6 (F158) [14]): 0.000119 s⁻¹; kon (human CD16A-His6 (F158) [14]): 1.44e+06 M⁻¹ s⁻¹; koff (human CD16A-His6 (V158) [15]): 0.00011 s⁻¹; kon (human CD16A-His6 (V158) [15]): 1.35e+06 M⁻¹ s⁻¹; Kd (human CD16B-His6 (NA2) [16]): 1050 nM; Kd (human CD16B-His6 (NA1) [17]): 942 nM; Kd (human CD16A-His6 (F158) [18]): 0.0825 nM; Kd (human CD16A-His6 (V158) [19]): 0.0816 nM; EC50 [20]: 4.42 nM |
| BG526P (VHH-Fc) (VHH, Humanized BG523P variant, VHH-Fc) EVQLVESGGGLVQPGGSLRLSCAASGRTFGSYAVGWFRQAPGKGREFVAAIRRSDATTDYVDSVKGRFTISRDNAKNTVYLQMNSLKPEDTAVYYCAASDSDYEPLGDYWGQGTLVTVSSEPKSSDKTHTCPPCPAPPAAGPSVFLFPPKPKDTLMISRTPEVTCVVVDVSHEDPEVKFNWYVDGVEVHNAKTKPREEQYNSTYRVVSVLTVLHQDWLNGKEYKCKVSNKALAAPIEKTISKAKGQPREPQVYTLPPSREEMTKNQVSLTCLVKGFYPSDIAVEWESNGQPENNYKTTPPVLDSDGSFFLYSKLTVDKSRWQQGNVFSCSVMHEALHNHYTQKSLSLSPGK | 7640 | 2740 | 0.49 | 4.95 | 19600 | 0.000148 | 230000 | 0.000133 | 289000 | 0.000147 | 301000 | 473 | 9.1 | 9200 | 0.64 | 0.425 | 1.52 | 21600 | 52 | – |
